According to patent US8415106B2, “Cell-based screen for agents useful for reducing neuronal demyelination or promoting neuronal remyelination” (Myelin Repair Foundation, Inc., priority 2005, dated 2013):
Where two headings read alike, the source gives them in different places.

Experiments:
Type in all cases: in vivo
[1] = test system: ER stress markers (BIP, CHOP, caspase-12); experiment: ER stress markers in the CNS of 14-day-old mice ectopically expressing IFN-γ (released from doxycycline at E14); conditions: PND 14, DOX− from E14
Excerpt: (§1) To study the effect of INF-γ on the myelination of oligodendrocytes during mouse development, transgenic mice that allow for temporally regulated delivery of IFN-γ to the CNS using the tetracycline (tet) controllable system (Lin, et al. (2004) J. Neurosci. 24: 10074-10083) were generated. To drive tTA expression in astrocytes, the transcriptional regulatory region of the glial fibrillary acidic protein (GFAP) gene was chosen (Brenner, et al. (1994) J. Neurosci. 14: 1030-1037). GFAP/tTA mice were mated with TRE/IFN-γ mice to produce animals hemizygous for both transgenes. When these mice are maintained on doxycycline (DOX+), expression of the IFN-γ transgene is repressed (FIG. 10A); when the double transgenic mice are released from doxycycline (DOX−) INF-γ is expressed. For the purpose of these experiments, mice received doxycycline up to day 14 of development (E14), at which time the experimental animals (DOX−) stopped receiving doxycycline, while the control animals (DOX+) were continuously fed the dug. The mRNA for IFN-γ could be detected in the DOX− mice as early as 10 days after birth (data not shown).
Real time PCR analysis was performed to determine the levels of expression of INF-γ, MHC-1, BIP, CHOP, and caspase 12. The primers for the PCR reactions for BIP, CHP and caspase 12 are given in example 1. The sense and antisense primers for INF-γ were […] (SEQ ID NO: 39) and […] (SEQ ID NO: 40), respectively; and the sense and antisense primers for MHC-1 were MHC-I sense primer: ATTCCCCAAAGGCCCATGT (SEQ ID NO: 1); and MHC-I antisense primer: […] (SEQ ID NO: 2).
Western blot analysis was performed on the CNS of 14 day old mice to determine the expression of caspase-12 as described in Example 6.

[2] = test system: myelinating oligodendrocytes in the CNS
Excerpt: as §1
Brain and spinal cord tissue were analyzed using immunohistochemical methods as follows. Anesthetized mice were perfused through the left cardiac ventricle with 4% paraformaldehyde in 0.1M PBS. The half-saggital brains and transcervical spinal cord were removed, postfixed with paraformaldehyde, cryopreserved in 30% sucrose, embedded in OCT and frozen on dry ice. Frozen sections were cut in a cryostat at a thickness of 10 μm. Coronal sections at the fornix region of the corpus callosum corresponding to. Sidman sections 241-251 were selected for use, and all comparative analyses were restricted to midline corpus callosum (Sidman, et al. (1971) Atlas of the Mouse Brain and Spinal Cord (Harvard Univ. Press, Cambridge, Mass.). For immunohistochemistry, frozen sections were treated with −20° C. acetone, blocked with PBS containing 10% NGS and 0.1% Triton X-100 and incubated overnight with the primary antibody diluted in blocking solution. Appropriate fluorochrome- or enzyme-labeled secondary antibodies (Vector Laboratories, Burlingame, Calif.) were used for detection. An antibody against CC1 (APC7, 1:50; EMD Biosciences, Inc., La Jolla, Calif.) was used as a marker for mature oligodendrocytes. Antibody against MBP (1:1000; Sternberger Monoclonals, Lutherville, Mass.) was used to verify the degree of myelination. Antibody against active-caspase-3 (1:50, Cell signaling Technology, Beverly, Mass.) was used as a marker for apoptotic cells. Fluorescent stained sections were mounted with Vectashield mounting medium with DAPI (Vector Laboratories) and visualized with a Zeiss Axioplan fluorescence microscope. Images were captured using a Photometrics PXL CCD camera connected to an Apple Macintosh computer using the Open Lab software suite. Immunopositive cells were quantified by counting positive cells within the median of the corpus callosum, confined to an area of 0.04 mm^2. Only those cells with nuclei observable by DAPI staining were counted. Each MBP immunostaining slide was scored on a scale of zero to four. A score of zero indicates complete demyelination, and a score of four indicates normal myelination in the corpus callosum of adult mice. […]

mice with EAE = experiment: MOG35-55-induced EAE, CNS delivery of INF-γ at the recovery stage (doxycycline withdrawn at PID7); conditions: DOX− mice
Excerpt: Double transgenic mice that allow for temporally regulated delivery of INF-γ to the CNS (Lin et al., J Neurosci 24:10074-10083 (2004)) were used to assess the role of INF-γ in the pathogenesis of EAE. GFAP/tTA; TRE/IFN-γ double transgenic mice, as described in Example 1 were used to determine the effect of INF-γ on the demyelination caused by EAE. All mice were fed doxycycline from the day of conception to repress the expression of INF-γ, and were immunized with myelin oligodendrocyte protein (MOG35-55) to induce EAE. At day 7 postimmunization (PID7), doxycycline was withdrawn from the experimental group (PID7 DOX−).
The level of INF-γ was determined in the control (DOX+) and the PID7 DOX− mice using an ELISA immunoassay as described in Example 1, and the severity of the disease was assessed as a function of a clinical score. Clinical severity scores were recorded daily according to a 0-5 point scale, where 0=healthy, 1=flaccid tail, 2=ataxia and/or paresis of hind limbs, 3=paralysis of hind limbs and/or paresis of forelimbs, 4=tetraparalysis, and 5=moribund or dead.
The spinal cord from DOX+ and DOX− animals with EAE was immunostained for MBP, and the remyelination of axons was evaluated. The number of oligodendrocytes was determined in the spine from DOX+ and DOX− mice as the number of CC1 positive cells. Axonal damage was evaluated by immunostaining of non-phosphorylated neurofilament-H. Antibodies to non-phosphorylated neurofilament-H Were SMI32 diluted to 1:1000 and obtained from Sternberger Monoclonals.

B1: IFN-γ: pleotropic cytokine secreted by activated T lymphocytes and natural killer cells; recombinant rat IFN-γ added to cultures or transgenically expressed in mouse CNS (protein, UniProt P01581 23-156, looked up)
Interferon gamma: QGTLIESLESLKNYFNSSSMDAMEGKSLLLDIWRNWQKDGNTKILESQIISFYLRLFEVLKDNQAISNNISVIESHLITNFFSNSKAKKDAFMSIAKFEVNNPQIQHKAVNELIRVIHQLSPESSLRKRKRSRC
[1]
  BIP expression: approximately 1.6 times the control levels
  CHOP expression: ~2 times the control levels
  caspase-12 expression: strongly enhanced
[2]; 14-day-old, IFN-γ expressed, PERK+/− background, doxycycline-maintained 9.8%±6.1%
  unmyelinated axons in the spinal cord: 81%±14.9%
[2]; 14-day-old, IFN-γ expressing, PERK+/− background
  decrease of oligodendrocyte numbers in the spinal cord: more than 50%
[2]; 14-day-old, released from doxycycline at E14, wild-type background
  unmyelinated axons in the spinal cord: 30%±12.9%
[2]; double transgenic, released from doxycycline at E14, PERK+/− background
  mice that died by post natal day (PND) 27: more than 90%
[2]; released from doxycycline at E 14
  TUNEL positive oligodendrocytes in the cervical spinal cord, PERK+/− versus wild-type background: 2.5 times
Mice with EAE; PID17, 0-5 point scale, DOX+ 2.66±0.80
  mean maximum clinical score: 2.69±0.69
Mice with EAE; PID17, control twenty of 25
  mice that developed hind limb paralysis: 24 of 30
Mice with EAE; PID50
  mice with hind limb paralysis that continued to suffer from the paralysis: 12/24
Mice with EAE; PID 50, control DOX+ less than 1
  clinical score: ~2
